Assay results: patent publication US20080207449A1 (CROPDESIGN N V, published 2008)

What was measured:
[1] = molecular target: pGBTE2Fb 1-127: GAL4 DNA-binding domain fusion of AtE2Fb amino acids 1-127 (Arabidopsis); assay: yeast two-hybrid, growth on His- minimal medium; empty prey vector control; legend: -, no interaction
[2] = molecular target: T1, pGBT DPb 1-385: GAL4 DNA-binding domain fusion of AtDPb 1-385 (Arabidopsis thaliana); assay: as above
T1 construct: its construction is not described

[3] = molecular target: T2, pGBT DPa 1-292: GAL4 DNA-binding domain fusion of AtDPa 1-292 (Arabidopsis thaliana); assay: as above
T2 construct: its construction is not described

[4] = molecular target: T3, pGBTE2Fb-Rb: GAL4 DNA-binding domain fusion of AtE2Fb amino acids 1-385 (lacking the Rb-binding domain) (Arabidopsis); assay: as above
T3 construct: also called E2F3 N-terminal; E2Fb (=E2F3) N-terminal domain

[5] = molecular target: T4, pGBTE2Fa226-356: GAL4 DNA-binding domain fusion of AtE2Fa amino acids 226-356 (Arabidopsis); assay: as above
T4 construct: also called E2F5 dimerisation domain; E2Fa (=E2F5) dimerization domain

[6] = molecular target: T5, empty pGBT9 (GAL4 DNA-binding domain alone) (UniProt P04386 1-147); assay: yeast two-hybrid, growth on His- minimal medium; both vectors empty; legend: -, no interaction
T5 construct: empty bait vector, control for specificity; also called pBGT9
Method: Different combinations between bait (pGBTE2Fa226-356, pGBTE2Fb-Rb, or pGBTE2Fb 1-127, SEQ ID NO:207) and prey constructs were transformed into yeast cells and assayed for their ability to grow on His⁻ minimal media after 3 days of incubation at 30° C. Bait plasmids co-transformed with empty pAD-GAL424 and prey plasmids co-transformed with empty pGBT9 were assessed along as controls for the specificity of the interaction.
Different combinations between AtE2Fs bait and AtDPs prey constructs were tested for growth on His minimal media. −, no interaction; +, positive interaction; NT, not tested.

Measured: binding result

B1: empty pAD-GAL424 (GAL4 transactivation domain alone) (other, UniProt P04386 768-881, looked up)
chain: ANFNQSGNIADSSLSFTFTNSSNGPNLITTQTNSQALSQPIASSNVHDNFMNNEITASKIDDGNNSKPLSPGWTDQTAYNAFGITTGMFNTTTMDDVYNYLFDDEDTPPNPKKE
notes: empty prey vector, control for specificity
no binding: all assays above
